B1: 6X HIS tagged AtSUMO5, recombinant, refolded (natural protein, Arabidopsis thaliana, UniProt Q8VZI7 1-108, looked up)
chain: MVSSTDTISASFVSKKSRSPETSPHMKVTLKVKNQQGAEDLYKIGTHAHLKKLMSAYCTKRNLDYSSVRFVYNGREIKARQTPAQLHMEEEDEICMVMELGGGGPYTP
notes: 15N-labelled; not shown: His6, N-terminal, kept
B2: 6X HIS tagged AtSUMO3, recombinant, refolded (natural protein, Arabidopsis thaliana, UniProt Q9FLP5 1-111, looked up)
chain: MSNPQDDKPIDQEQEAHVILKVKSQDGDEVLFKNKKSAPLKKLMYVYCDRRGLKLDAFAFIFNGARIGGLETPDELDMEDGDVIDACRAMSGGLRANQRQWSYMLFDHNGL
notes: as for B1

Target: the molecule itself
Assay: SEC; size exclusion profile of recombinant NiNTA purified 6X HIS SUMO proteins on a SD75 column, void volume 40.25 ml; AtSUMO3 and AtSUMO5 after refolding

| Protein | binding result |
| --- | --- |
| B1 | binds |
| B2 | binds |
